Like-named read-outs stand apart in the source and are kept apart here.

The conditions of series [1]: rat, in vivo, sc.
Experimental: Each syringe contained 0.45 or 0.98 μmol peptide at 1.9 μmol peptide g^−1 slurry. The syringes were weighed prior to and after dosing to verify the mass delivered to each rat. Blood samples (300 μL) were drawn and the serum was frozen at −80° C. until analysis.
Frozen serum samples were thawed on ice and diluted between 5 and 20-fold in the provided rat serum. […] Data replicates were averaged and fitted to appropriate pharmacokinetic models.
The conditions of series [2]: mouse, in vivo.
Experimental: B. The small amounts of microspheres needed in the mouse required a diluent to allow accurate dosing. […] This diluent served to keep the microspheres in a homogeneous suspension prior to and during administration and allowed dosing of convenient volumes. […] Syringes (0.5 mL U-100 insulin syringe with fixed 29 g×½″ needle, BD) were filled with the suspended microspheres under aseptic conditions. The needle assembly of each syringe was purged of air and weighed prior to and following dosing to determine the average mass of slurry delivered to each mouse.
Serum was prepared and frozen at −80° C. until analysis.
(§1) Serum samples were treated with 3 vol of ACN and centrifuged. The supernatant was dried, reconstituted and applied to a HPLC MS/MS system. The sample was eluted by a water/ACN gradient containing 0.1% formic acid. […] HPLC-MS/MS analyses were carried out on a Sciex 5500 QTrap® mass spectrometer coupled with a Shimadzu HPLC system. The Shimadzu HPLC system consisted of two LC-30AD HPLC pumps and a SIL-30AC autosampler with a 100-μL loop installed. […] The mass spectrometer was operated in positive electrospray ionization mode and the resolution setting used was the unit for both Q1 and Q3. […] Peak-area integrations were performed using Analyst software (version 1.5.2) from Sciex.
(§2) C vs. t curves (text) were analyzed using GraphPad Prism by non-linear regression of eq X (text) with weighting by 1/SD2; since ka>>k1 we modeled the single exponential phase of the terminal half-life using data points later than the first few days.
Series [3] deals with Zucker diabetic fatty rats. Briefly: Chronic glucoregulatory effects in diabetic ZDF rats. The format is in vivo. As to conditions: single s.c. dose. How it is done: A total of 55 male Zucker diabetic fatty rats (ZDF-Lepr^fa/Crl) 6 weeks of age, and 180-200 gram (Charles River, USA) were single-housed and blood glucose and body weight were monitored bi-weekly for 2-4 weeks. Based on morning-fed blood glucose, outliers were excluded and 40 diabetic rats (average weight 340 g, blood glucose 9.7 to 22.5 mM, average 16.2 mM) were stratified into 4 groups of n=10. […]
Body-weights were monitored daily from day −3 throughout the study. Food and water intake were monitored on day −3 and daily for the first 11 days after the first dose then bi-weekly for the rest of the study period. Blood sampling was performed for pharmacokinetic studies 2 days after the first dose and then once weekly. HbA1c was measured day −3, and days 26 and 55 before OGTT, and the gastric emptying test was performed on day 26. For the OGTT, rats were semi-fasted overnight (60%) then PO glucose (2 g/kg in 10 mL) was administered at t=0. Blood glucose and insulin were measured at t=−60, −15, 0, 15, 30, 60 and 120 minutes after the glucose challenge. Gastric emptying was measured by administration of acetaminophen (100 mg/kg) with the OGTT on day 26, and blood levels were measured at 15, 30, 60 and 120 min.

For series [4] the following is noted: pH 9.4.
For series [5] the following is noted: rat, in vivo.
Experimental: The content of each syringe was administered SC in the flank of six cannulated male Sprague Dawley rats (average weight 270 g).
as §1, §2

Broadly, the Cmax is the maximum level reached in the sampled fluid or tissue. Turning to “hydrogel-[N28Q]exenatide microspheres R^1=CN: PEG hydrogel microspheres coupled with Nα-[1-cyano-7-azido-2-heptyloxycarbonyl]-[N28Q]exenatide”, the t1/2 in series [1] worked out at 31.7 days. In addition, in series [2], the AUCinf came to 800 ± 323 nM-hr; the highest level (Cmax) was 0.81 nM; the “Dose adjusted: Cmax, 0” value is 0.18 nM/(μmol/kg); the “k × 10^4 ± SE” value was 9.5 ± 1.0 h^−1. For the same substance, in series [2], the t1/2 was found to be 30.4 days. Further, the “control of blood glucose” value in series [3] is listed as “effective at controlling blood glucose for at least one month”. Besides, in series [4], the “half-life of first-order release of free peptide” value was found to be 0.688 days. In series [5], the AUCinf amounted to 448 ± 91 nM-hr; the highest level (Cmax) was 0.36 nM; the “Dose adjusted: Cmax, 0” value is reported as 0.17 nM/(μmol/kg); the “k × 10^4 ± SE” value is 7.8 ± 1.3 h^−1. Besides, the t1/2 in series [5] was found to be 36.8 days. In addition, the “t1/2,β” value in series [5] (sc) is 36.7 days.

Source of the values: patent US20200164083A1 (priority 2016, published 2020).
